Experimental data from the Human Domainome abundance scans (Beltran et al. 2025).
± gives the uncertainty stated by the source.

B1: TOX high mobility group box family member 3, residues 256 to 323; numbered along this chain, O15405 (parent)
chain: QKPVSAYALFFRDTQAAIKGQNPNATFGEVSKIVASMWDSLGEEQKQVYKRKTEAAKKEYLKALAAYR

Variants of: B1
Assay: abundance fitness (aPCA) (normalised: wild type 0, dead -1); higher = more abundant; growth selection in yeast, the domain comes from the species named
Conditions: Homo sapiens

| Variant | abundance fitness |
| --- | --- |
| M37W | -0.874 ± 0.12 |
| A16D | 0.068 ± 0.12 |
| A16F | -0.164 ± 0.11 |
| A16S | -0.158 ± 0.055 |
| E54S | -0.211 ± 0.052 |
| A65E | 0.113 ± 0.047 |
| A25S | -0.287 ± 0.045 |
| A6M | -0.316 ± 0.1 |
| T26C | -0.275 ± 0.064 |
| T26P | -0.332 ± 0.071 |
| T26I | -1.01 ± 0.23 |
| T26G | -0.208 ± 0.065 |
| T26S | 0.051 ± 0.055 |
| T26H | -0.161 ± 0.13 |
| T26A | -0.25 ± 0.068 |
| T26N | 0.03 ± 0.079 |
| K52S | -0.145 ± 0.04 |
| K52A | -0.368 ± 0.055 |
| K52E | -0.219 ± 0.07 |
| E43N | -0.374 ± 0.17 |
| E43T | -0.022 ± 0.06 |

| Variant | abundance fitness |
| --- | --- |
| A55Y | -0.276 ± 0.094 |
| A55H | 0.015 ± 0.053 |
| A55K | 0.049 ± 0.057 |
| A55I | -0.148 ± 0.09 |
| P23V | -0.677 ± 0.11 |
| P23E | -0.558 ± 0.11 |
| P23W | -0.94 ± 0.14 |
| P23N | -0.251 ± 0.15 |
| Q21G | -0.289 ± 0.057 |
| Q21A | -0.051 ± 0.058 |
| Q21F | -0.444 ± 0.11 |
| S5I | -0.94 ± 0.39 |
| K19E | -0.256 ± 0.21 |
| K19Y | -0.151 ± 0.11 |
| K19R | -0.102 ± 0.06 |
| A17K | 0.196 ± 0.085 |
| A17R | 0.083 ± 0.055 |
| A17Y | -0.087 ± 0.081 |
| Y7E | -0.263 ± 0.11 |
| Y7K | -0.033 ± 0.077 |
| Y7R | -0.244 ± 0.042 |

| Variant | abundance fitness |
| --- | --- |
| S31N | -0.213 ± 0.16 |
| S31P | -1 ± 0.22 |
| S31Q | -0.063 ± 0.083 |
| Q15V | -0.173 ± 0.057 |
| E29V | -0.618 ± 0.099 |
| E29C | -0.643 ± 0.1 |
| E29R | -0.558 ± 0.068 |
| E29N | -0.543 ± 0.12 |
| E29H | -0.501 ± 0.082 |
| K57L | -0.346 ± 0.056 |
| K57N | 0.042 ± 0.077 |
| K57A | -0.034 ± 0.069 |
| R68G | -0.01 ± 0.078 |
| A66M | -0.097 ± 0.068 |
| A66W | -0.103 ± 0.067 |
| K32D | -0.078 ± 0.075 |
| K32C | -0.289 ± 0.072 |
| K32H | -0.286 ± 0.075 |
| A35Q | -0.01 ± 0.071 |
| A35D | -0.275 ± 0.12 |
| A35S | -0.037 ± 0.05 |

| Variant | abundance fitness |
| --- | --- |
| F27A | 0.249 ± 0.057 |
| F27I | -0.071 ± 0.22 |
| F27L | 0.051 ± 0.041 |
| F27S | 0.154 ± 0.051 |
| N24I | -0.879 ± 0.27 |
| N24R | -0.063 ± 0.053 |
| N24Y | -0.563 ± 0.097 |
| N24E | -0.001 ± 0.07 |
| N24A | -0.183 ± 0.066 |
| N24V | -0.591 ± 0.08 |
| N24C | -0.331 ± 0.086 |
| N24T | 0.026 ± 0.078 |
| K62N | -0.069 ± 0.069 |
| K62G | -0.133 ± 0.05 |
| K62I | -0.538 ± 0.093 |
| K62Y | -0.396 ± 0.063 |
| G28Y | -0.5 ± 0.15 |
| G28C | -0.046 ± 0.079 |
| G28V | -0.12 ± 0.056 |
| G28E | 0.175 ± 0.075 |
| G28Q | -0.159 ± 0.1 |
